Results reported in patent US11235041B2, “Peptides and combination of peptides for use in immunotherapy against various cancers” (Immatics Biotechnologies GmbH, priority 2015, dated 2022).

How the values were obtained:
[1] = target: HLA-A*02 (Homo sapiens, UniProt P04439, D140Y/D185E/D98H/E176V/E277Q/G131W/G231S/I119V/I121R/I166T/I218V/L300P/N151K/N90K/P208A/P217A/Q86G/Q94H/R138H/R169H); experiment: MHC binding assay: UV-ligand exchange and beta2m ELISA, peptide exchange yield (Table 20); settings: binding to HLA-A*02; UV-ligand exchange, beta2m ELISA
Source text: Candidate peptides for T cell based therapies according to the present invention were further tested for their MHC binding capacity (affinity). The individual peptide-MHC complexes were produced by UV-ligand exchange, where a UV-sensitive peptide is cleaved upon UV-irradiation, and exchanged with the peptide of interest as analyzed. Only peptide candidates that can effectively bind and stabilize the peptide-receptive MHC molecules prevent dissociation of the MHC complexes. To determine the yield of the exchange reaction, an ELISA was performed based on the detection of the light chain (β2m) of stabilized MHC complexes. The assay was performed as generally described in Rodenko et al. (Rodenko et al., 2006).
96 well MAXISorp plates (NUNC) were coated over night with 2 ug/ml streptavidin in PBS at room temperature, washed 4× and blocked for1h at 37° C. in 2% BSA containing blocking buffer. Refolded HLA-A*02:01/MLA-001 monomers served as standards, covering the range of 15-500 ng/ml. Peptide-MHC monomers of the UV-exchange reaction were diluted 100 fold in blocking buffer. Samples were incubated for 1h at 37° C., washed four times, incubated with 2 ug/ml HRP conjugated anti-β2m for 1h at 37′C, washed again and detected with TMB solution that is stopped with […]. Absorption was measured at 450 nm. Candidate peptides that show a high exchange yield (preferably higher than 50%, most preferred higher than 75%) are generally preferred for a generation and production of antibodies or fragments thereof, and/or T cell receptors or fragments thereof, as they show sufficient avidity to the MHC molecules and prevent dissociation of the MHC complexes.
Table 20: MHC class I binding scores. Binding of HLA-class I restricted peptides to HLA-A*02 was ranged by peptide exchange yield: <20%=+; 20%-49%=++; 50%-75%=+++; >=75%=++++

[2] = tested on: CD8+ T cells of healthy HLA-A*02+ donors; experiment: In vitro T-cell priming assay with artificial antigen presenting cells loaded with peptide/HLA-A*02 complexes and anti-CD28, multimer readout; assay type: cell-based, human; settings: HLA-A*02 peptides; peptide-specific multimer+ CD8+ T cells after in vitro priming; Table 19B
Source text: FIGS. 4A to 4D show exemplary results of peptide-specific in vitro CD8+ T cell responses of a healthy HLA-A*02+ donor. CD8+ T cells were primed using artificial APCs coated with anti-CD28 mAb and HLA-A*02 in complex with SeqID No 27 peptide (FIG. 4A, left panel), SeqID No 229 peptide (FIG. 4B, left panel), SeqID No 230 peptide (FIG. 4C, left panel) and SeqID No 235 peptide (FIG. 4D, left panel), respectively. After three cycles of stimulation, the detection of peptide-reactive cells was performed by 2D multimer staining with A*02/SeqID No 27 (FIG. 4A), A*02/SeqlD No 229 (FIG. 4B), A*02/SeqlD No 230 (FIG. 4C) or A*02/SeqlD No 235 (FIG. 4D). Right panels (FIGS. 4A, 4B, 4C and 4D) show control staining of cells stimulated with irrelevant A*02/peptide complexes. Viable singlet cells were gated for CD8+ lymphocytes. Boolean gates helped excluding false-positive events detected with multimers specific for different peptides. Frequencies of specific multimer+ cells among CD8+ lymphocytes are indicated.
In order to obtain information regarding the immunogenicity of the TUMAPs of the present invention, the inventors performed investigations using an in vitro T-cell priming assay based on repeated stimulations of CD8+ T cells with artificial antigen presenting cells (aAPCs) loaded with peptide/MHC complexes and anti-CD28 antibody.
In order to perform in vitro stimulations by artificial antigen presenting cells loaded with peptide-MHC complex (pMHC) and anti-CD28 antibody, the inventors first isolated CD8+ T cells from fresh HLA-A*02 leukapheresis products via positive selection using CD8 microbeads (Miltenyi Biotec, Bergisch-Gladbach, Germany) of healthy donors obtained from the University clinics Mannheim, Germany, after informed consent.
PBMCs and isolated CD8+ lymphocytes were incubated in T-cell medium (TCM) until use consisting of RPMI-Glutamax (Invitrogen, Karisruhe, Germany) supplemented with 10% heat inactivated human AB serum (PAN-Biotech, Aidenbach, Germany), 100 U/ml Penicillin/100 μg/ml Streptomycin (Cambrex, Cologne, Germany), 1 mM sodium pyruvate (CC Pro, Oberdorla, Germany), 20 μg/ml Gentamycin (Cambrex). 2.5 ng/ml IL-7 (PromoCell, Heidelberg, Germany) and 10 U/ml IL-2 (Novartis Pharma, Nürnberg, Germany) were also added to the TCM at this step.
Generation of pMHC/anti-CD28 coated beads, T-cell stimulations and readout was performed in a highly defined in vitro system using four different pMHC molecules per stimulation condition and 8 different pMHC molecules per readout condition.
The purified co-stimulatory mouse IgG2a anti human CD28 Ab 9.3 (Jung et al., 1987) was chemically biotinylated using Sulfo-N-hydroxysuccinimidobiotin as recommended by the manufacturer (Perbio, Bonn, Germany). Beads used were 5.6 μm diameter streptavidin coated polystyrene particles (Bangs Laboratories, Illinois, USA).
pMHC used for positive and negative control stimulations were A*0201/MLA-001 (peptide […] (SEQ ID NO. 303) from modified Melan-A/MART-1) and A*0201/DDX5-001 ([…] from DDX5, SEQ ID NO. 304), respectively.
800.000 beads/200 μl were coated in 96-well plates in the presence of 4×12.5 ng different biotin-pMHC, washed and 600 ng biotin anti-CD28 were added subsequently in a volume of 200 μl. Stimulations were initiated in 96-well plates by co-incubating 1×10^6 CD8+ T cells with […] washed coated beads in 200 μl TCM supplemented with 5 ng/ml IL-12 (PromoCell) for 3 days at 37° C. Half of the medium was then exchanged by fresh TCM supplemented with 80 U/ml IL-2 and incubating was continued for 4 days at 37° C. This stimulation cycle was performed for a total of three times. For the pMHC multimer readout using 8 different pMHC molecules per condition, a two-dimensional combinatorial coding approach was used as previously described (Andersen et al., 2012) with minor modifications encompassing coupling to 5 different fluorochromes. […]

Substance	Peptide exchange (MHC class I binding score, peptide exchange yield) [1]	Wells positive [%] (in vitro immunogenicity) [2]
1 (LLYPEPWSV; listed as Homo sapiens) [compound 1]	++++ (>=75% = ++++)	++ (20%-49%=++)
12 (GLLPLLHRA; listed as Homo sapiens) [compound 12]	++++ (>=75% = ++++)	++++ (>=70%=++++)
14 (ILAKDLFEI; listed as Homo sapiens) [compound 14]	++++ (>=75% = ++++)	++ (20%-49%=++)
4 (KLMPGTYTL; listed as Homo sapiens) [compound 4]	++++ (>=75% = ++++)	+ (<20%=+)

The next lines start with results.

Peptide exchange (MHC class I binding score, peptide exchange yield) [1]	Substance	Wells positive [%] (in vitro immunogenicity) [2]
++++ (>=75% = ++++)	229 (AILAHLNTV; listed as Homo sapiens) [compound 229]	++ (20%-49%=++)
++++ (>=75% = ++++)	92 (GLLFSLRSV; listed as Homo sapiens) [compound 92]	++ (20%-49%=++)
++++ (>=75% = ++++)	249 (GLCERLVSL; listed as Homo sapiens) [compound 249]	+ (<20%=+)
++++ (>=75% = ++++)	248 (YLDRFLAGV; listed as Homo sapiens) [compound 248]	++ (20%-49%=++)
